# Measured values reported in paper PMC8649778.
# Target: APRc_(110–231)His, soluble domain of APRc fused to a C-terminal His tag (Rickettsia conorii) (UniProt Q92FY8)
# Assay: shift of migration in nonreducing SDS-PAGE with Western blot
substance,measurement,value
"APRc_(110–231)His, soluble domain of APRc fused to a C-terminal His tag (from UniProt Q92FY8 110-231) (domain or fragment)",stoichiometry N,2
